Experimental data taken from patent US7329737 (DYAX, dated 2008).
Each block holds one binder with its values, some of them ahead of it.

Tests used:
[1] = target: kallikrein-like activity in sheep urine (tissue kallikrein, K1) (sheep); assay: cell-based or functional assay
[2] = target: Human plasmin (human, UniProt P00747 97-810); assay: protease inhibition assay, Fab up to 1 µM;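 also: protease and Fab preincubated 1 h at room temperature, then substrate added, fluorescence plate-reader monitoring of substrate hydrolysis rate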
Experimental: (§1) Selected antibodies were tested for their ability to inhibit other proteases.
(§2) Assays were performed in black, 96 well, round bottomed microplates in a total volume of 100 μL. Enzyme and Fab inhibitor were incubated in the dark at room temperature for 1 hour prior to the addition of the indicated amount of substrate. The rate of enzymatic substrate hydrolysis was then monitored using the Spectramax Gemini XS fluorescence plate reader using the wavelengths listed in Table 3.

[3] = target: Human Tissue Kallikrein 2 (hK2) (human, UniProt P20151 25-261); assay: protease inhibition assay, Fab up to 1 µM;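 also: protease and Fab preincubated 1 h at room temperature, then substrate added, fluorescence plate-reader monitoring of substrate hydrolysis rate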
Experimental: as §1, §2

[4] = target: Human activated protein kinase C (human); assay: protease inhibition assay, Fab up to 1 µM;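 also: protease and Fab preincubated 1 h at room temperature, then substrate added, fluorescence plate-reader monitoring of substrate hydrolysis rate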
Experimental: as §1, §2

[5] = target: Human Tissue Kallikrein 5 (hK5) (human, UniProt Q9Y337 67-293, limits assumed); assay: protease inhibition assay, Fab up to 1 µM;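 also: protease and Fab preincubated 1 h at room temperature, then substrate added, fluorescence plate-reader monitoring of substrate hydrolysis rate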
Experimental: as §1, §2

[6] = target: T1, Human trypsin (human, UniProt P07477 24-247); assay: protease inhibition assay, Fab up to 1 µM
T1 construct: also called Human Pancreatic Trypsin
Experimental: as §1, §2

[7] = target: T2, Human Tissue Kallikrein 8 (hK8) (human, UniProt O60259 33-260); assay: protease inhibition assay, Fab up to 1 µM
T2 sequence (looked up): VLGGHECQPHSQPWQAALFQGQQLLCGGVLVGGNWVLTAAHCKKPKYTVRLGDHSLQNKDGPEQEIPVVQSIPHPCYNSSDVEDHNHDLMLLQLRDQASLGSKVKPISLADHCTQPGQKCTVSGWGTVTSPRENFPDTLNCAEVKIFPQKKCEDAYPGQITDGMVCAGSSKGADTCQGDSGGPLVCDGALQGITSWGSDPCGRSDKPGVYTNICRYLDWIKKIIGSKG
Experimental: as §1, §2

[8] = target: Human chymotrypsin (human, UniProt P17538 19-263); assay: protease inhibition assay, Fab up to 1 µM
Experimental: as §1, §2

[9] = target: T3, Human elastase (human, UniProt P08246 30-247); assay: protease inhibition assay, Fab up to 1 µM
T3 construct: also called Human Neutrophil Elastase
T3 sequence (looked up): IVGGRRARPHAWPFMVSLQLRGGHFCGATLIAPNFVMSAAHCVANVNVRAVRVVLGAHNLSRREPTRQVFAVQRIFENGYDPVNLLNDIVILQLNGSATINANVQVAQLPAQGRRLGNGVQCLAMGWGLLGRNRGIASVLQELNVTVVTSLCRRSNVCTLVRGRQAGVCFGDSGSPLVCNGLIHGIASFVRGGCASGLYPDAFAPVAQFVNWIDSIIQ
Experimental: as §1, §2

[10] = target: Human urokinase (human, UniProt P00749 21-431, limits assumed); assay: protease inhibition assay, Fab up to 1 µM
Experimental: as §1, §2

[11] = target: Human plasma kallikrein (human, UniProt P03952 20-638); assay: protease inhibition assay, Fab up to 1 µM
Experimental: as §1, §2

[12] = target: Human Tissue Kallikrein 3 (hK3, PSA) (human, UniProt P07288 25-261); assay: protease inhibition assay, Fab up to 1 µM
Experimental: as §1, §2

[13] = target: Human Tissue Kallikrein 4 (hK4) (human, UniProt Q9Y5K2 31-254); assay: protease inhibition assay, Fab up to 1 µM
Experimental: as §1, §2

[14] = target: Human thrombin (human, UniProt P00734 328-622); assay: protease inhibition assay, Fab up to 1 µM
Experimental: as §1, §2

[15] = target: T4, hK1 (human tissue kallikrein 1), recombinant (human, UniProt P06870 25-262); assay: enzyme inhibition, tight-binding analysis, noncompetitive; Fab
T4 construct: Expressed in P. pastoris from KLK1 cDNA and purified; enzymatically active; also called KLK1; Recombinant (Pichia) Kallikrein

[16] = target: T4, hK1 (human tissue kallikrein 1), …; assay: SPR, biotinylated hK1 on streptavidin chip; Fab 50 nM after DX-2300 50 nM (competitor DX-2300)
Text: Epitope grouping by SPR. Biotinylated hK1 was captured on a streptavidin coated chip to a final ligand density of 88 RU. […] The signal at the end of the injection of the Fab alone is R2.

[17] = target: T4, hK1 (human tissue kallikrein 1), …; assay: cell-based or functional assay
[18] = target: T4, hK1 (human tissue kallikrein 1), …; assay: SPR
[19] = target: T4, hK1 (human tissue kallikrein 1), …; assay: enzyme inhibition, tight-binding analysis, competitive; Fab

Sequence of Human Tissue Kallikrein 5 (hK5) (Q9Y337 67-293 limits assumed): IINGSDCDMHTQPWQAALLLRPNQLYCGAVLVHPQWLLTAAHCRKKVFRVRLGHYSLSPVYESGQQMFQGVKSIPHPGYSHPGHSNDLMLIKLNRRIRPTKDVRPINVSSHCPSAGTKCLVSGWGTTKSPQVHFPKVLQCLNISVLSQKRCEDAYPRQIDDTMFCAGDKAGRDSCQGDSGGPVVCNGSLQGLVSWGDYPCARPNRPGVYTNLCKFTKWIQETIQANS
Sequence of Human Tissue Kallikrein 2 (hK2) (P20151 25-261 limits assumed): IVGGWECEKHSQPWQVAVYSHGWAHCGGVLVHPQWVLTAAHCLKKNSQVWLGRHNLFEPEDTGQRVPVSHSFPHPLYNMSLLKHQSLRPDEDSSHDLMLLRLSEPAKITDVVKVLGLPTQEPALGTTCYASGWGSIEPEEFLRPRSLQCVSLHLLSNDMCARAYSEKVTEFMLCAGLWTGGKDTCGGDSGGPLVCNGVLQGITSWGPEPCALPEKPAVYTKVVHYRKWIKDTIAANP
Sequence of Human Tissue Kallikrein 3 (hK3, PSA) (P07288 25-261 limits assumed): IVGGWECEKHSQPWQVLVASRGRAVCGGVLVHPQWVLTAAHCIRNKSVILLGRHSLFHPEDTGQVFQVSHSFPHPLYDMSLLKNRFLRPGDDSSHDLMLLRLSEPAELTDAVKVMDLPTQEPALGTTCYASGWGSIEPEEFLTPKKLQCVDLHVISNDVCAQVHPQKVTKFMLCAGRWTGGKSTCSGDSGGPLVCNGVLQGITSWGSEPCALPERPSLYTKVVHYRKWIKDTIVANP
Sequence of Human Tissue Kallikrein 4 (hK4) (Q9Y5K2 31-254 limits assumed): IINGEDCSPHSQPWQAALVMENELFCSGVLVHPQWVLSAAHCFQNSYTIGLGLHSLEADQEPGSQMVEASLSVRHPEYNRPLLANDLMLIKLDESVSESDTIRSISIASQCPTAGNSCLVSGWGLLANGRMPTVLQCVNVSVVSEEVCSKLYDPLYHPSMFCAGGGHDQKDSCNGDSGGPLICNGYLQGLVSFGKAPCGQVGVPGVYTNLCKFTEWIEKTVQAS
Sequence of Human plasma kallikrein (P03952 20-638 limits assumed): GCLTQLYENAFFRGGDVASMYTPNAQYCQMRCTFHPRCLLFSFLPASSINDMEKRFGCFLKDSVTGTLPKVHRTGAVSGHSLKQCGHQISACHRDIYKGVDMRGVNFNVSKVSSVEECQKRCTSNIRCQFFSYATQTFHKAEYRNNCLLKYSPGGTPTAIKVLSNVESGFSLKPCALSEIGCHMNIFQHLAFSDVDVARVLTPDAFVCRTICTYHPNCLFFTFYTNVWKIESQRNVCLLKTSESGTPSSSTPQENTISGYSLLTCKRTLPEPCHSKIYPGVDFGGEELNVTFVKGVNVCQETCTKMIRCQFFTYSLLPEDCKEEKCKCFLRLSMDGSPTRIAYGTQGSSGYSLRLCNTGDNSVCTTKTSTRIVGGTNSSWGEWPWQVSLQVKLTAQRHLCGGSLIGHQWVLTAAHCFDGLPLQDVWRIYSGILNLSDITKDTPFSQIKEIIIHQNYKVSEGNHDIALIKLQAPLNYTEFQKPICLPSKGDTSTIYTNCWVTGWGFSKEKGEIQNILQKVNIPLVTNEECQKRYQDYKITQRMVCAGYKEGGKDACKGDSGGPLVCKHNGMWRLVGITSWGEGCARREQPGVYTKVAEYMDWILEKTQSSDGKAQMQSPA
Sequence of Human chymotrypsin (P17538 19-263): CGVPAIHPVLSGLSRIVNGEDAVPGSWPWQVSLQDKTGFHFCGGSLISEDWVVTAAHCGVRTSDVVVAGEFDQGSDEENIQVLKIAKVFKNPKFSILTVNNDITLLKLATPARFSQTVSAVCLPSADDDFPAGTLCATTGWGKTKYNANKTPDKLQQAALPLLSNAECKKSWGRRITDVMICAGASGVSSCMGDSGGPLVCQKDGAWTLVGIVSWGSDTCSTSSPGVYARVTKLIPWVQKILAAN
Sequence of Human plasmin (P00747 97-810 limits assumed): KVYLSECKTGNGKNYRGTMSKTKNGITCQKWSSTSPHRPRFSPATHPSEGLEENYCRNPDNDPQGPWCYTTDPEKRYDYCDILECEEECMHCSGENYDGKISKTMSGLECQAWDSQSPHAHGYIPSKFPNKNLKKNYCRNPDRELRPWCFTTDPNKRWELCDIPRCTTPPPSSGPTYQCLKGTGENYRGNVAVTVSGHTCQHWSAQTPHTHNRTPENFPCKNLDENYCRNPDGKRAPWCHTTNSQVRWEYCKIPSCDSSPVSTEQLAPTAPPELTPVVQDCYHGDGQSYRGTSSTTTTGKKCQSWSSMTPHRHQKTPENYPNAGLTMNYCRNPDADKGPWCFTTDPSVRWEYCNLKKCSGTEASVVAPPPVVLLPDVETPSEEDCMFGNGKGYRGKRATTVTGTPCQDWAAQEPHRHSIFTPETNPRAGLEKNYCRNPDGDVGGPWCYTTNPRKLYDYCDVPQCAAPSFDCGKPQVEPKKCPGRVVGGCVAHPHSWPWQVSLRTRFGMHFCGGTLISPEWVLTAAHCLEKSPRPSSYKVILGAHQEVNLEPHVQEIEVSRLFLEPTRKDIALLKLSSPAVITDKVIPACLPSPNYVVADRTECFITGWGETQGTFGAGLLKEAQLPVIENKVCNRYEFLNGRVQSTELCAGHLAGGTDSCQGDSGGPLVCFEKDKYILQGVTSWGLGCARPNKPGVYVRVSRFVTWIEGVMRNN
Sequence of Human activated protein kinase C (human) (P04070 43-197, chain 1 of 2): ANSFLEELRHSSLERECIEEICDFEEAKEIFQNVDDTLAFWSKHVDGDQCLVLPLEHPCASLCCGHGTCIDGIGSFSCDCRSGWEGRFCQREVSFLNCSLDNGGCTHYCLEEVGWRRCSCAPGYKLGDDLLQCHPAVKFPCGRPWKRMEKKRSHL
Sequence of Human activated protein kinase C (human) (P04070 212-461, chain 2 of 2): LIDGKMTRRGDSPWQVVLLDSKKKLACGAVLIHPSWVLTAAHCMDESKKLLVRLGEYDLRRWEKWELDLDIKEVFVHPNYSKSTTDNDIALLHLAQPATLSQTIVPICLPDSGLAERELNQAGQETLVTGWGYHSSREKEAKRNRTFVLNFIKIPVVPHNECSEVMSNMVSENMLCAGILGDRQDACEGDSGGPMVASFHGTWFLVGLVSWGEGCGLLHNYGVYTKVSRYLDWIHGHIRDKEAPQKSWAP

IC50 of kallikrein-like activity in activated urine (Pro-Phe-Arg-AMC) [1]: 2.9 nM
B1: DX-2300 (format not stated) (antibody, V domains shown)
VH: EVQLLESGGGLVQPGGSLRLSCAASGFTFSKYKMVWVRQAPGKGLEWVSSIYPSGGITAYADSVKGRFTISRDNSKNTLYLQMNSLRAEDTAMYYCAKDITPGGGSGFRLPKNYYYYGMDVWGQGTTVTVSS
VL: not shown

Ki [2]: > 1000 nM
Ki [3]: > 1000 nM
Ki [4]: > 1000 nM
Ki [5]: > 1000 nM
Ki [6]: > 1000 nM
Ki [7]: > 1000 nM
Ki [8]: > 1000 nM
Ki [9]: > 1000 nM
Ki [10]: > 1000 nM
Ki [11]: > 1000 nM
Ki [12]: > 1000 nM
Ki [13]: > 1000 nM
Ki [14]: > 1000 nM
B2: DX-2300 (M0131-F07), Fab (Fab, V domains shown)
VH: B1 VH
VL: not shown

Ki [15]: 1.9 nM
Ki [2]: > 1000 nM
Ki [3]: > 1000 nM
Ki [5]: > 1000 nM
Ki [6]: > 1000 nM
Ki [7]: > 1000 nM
Ki [8]: > 1000 nM
Ki [9]: > 1000 nM
Ki [10]: > 1000 nM
Ki [11]: > 1000 nM
Ki [12]: > 1000 nM
Ki [13]: > 1000 nM
Ki [14]: > 1000 nM
Fab Signal following DX-2300 (R1) [16]: 5.9
IC50 (nM), inhibition of hK1 hydrolysis of Pro-Phe-Arg-AMC [17]: 2.5 nM
Kd [18]: 4.66 nM
koff [18]: 0.00279 s⁻¹
kon [18]: 600000 M⁻¹ s⁻¹
B3: M0093-F09 (Fab, V domains shown)
VH: EVQLLESGGGLVQPGGSLRLSCAASGFTFSDYRMWWVRQAPGKGLEWVSYIVPSGGQTSYADSVKGRFTISRDNSKNTLYLQMNSLRAEDTAVYYCARGSAYQRRTYSSGWYSASGRRGTAEYFQHWGQGTLVTVSS
VL: AQSALTQPASVSGSPGQSITISCTGTSTDDVGGYNYVSWYQQHPGKAPKLMIYDVINRPSGVSNRFSGSKSGNTASLTISGLQAEDEADYYCSSYTSRGTRVFGTGTKVTVLG
notes: also called M093-F09

Ki [2]: > 1000 nM
Ki [3]: > 1000 nM
Ki [4]: > 1000 nM
Ki [5]: > 1000 nM
Ki [6]: > 1000 nM
Ki [7]: > 1000 nM
Ki [8]: > 1000 nM
Ki [9]: > 1000 nM
Ki [10]: > 1000 nM
Ki [11]: > 1000 nM
Ki [12]: > 1000 nM
Ki [13]: > 1000 nM
Ki [14]: > 1000 nM
Fab Signal following DX-2300 (R1) [16]: 20.8
IC50 (nM), inhibition of hK1 hydrolysis of Pro-Phe-Arg-AMC [17]: 0.4 nM
Kd [18]: 1.29 nM
koff [18]: 0.000158 s⁻¹
kon [18]: 123000 M⁻¹ s⁻¹
Ki [19]: 0.9 nM
B4: M0137-E01 (Fab, V domains shown)
VH: EVQLLESGGGLVQPGGSLRLSCAASGFTFSRYSMTWVRQAPGKGLEWVSSIYPSGGKTTYADSVKGRFTISRDNSKNTLYLQMNSLRAEDTAVYYCASMVAPYYYDSSGYPPAEYFQHWGQGTLVTVSS
VL: AQSELTQPPSASGTPGQRVTISCSGTNSNIGSNSVFWYQQLSGTAAPKVLILRNSQRPSGVSDRFSGSKSGTSASLAISGLRSEDEADYYCATWDDSLRSPVFGGGTKLTVLG
notes: also called M137-E01
